Laboratory results taken from patent US20180222982A1 (Novartis, published 2018).

How the values were obtained:
[1] = target: T1, human PD-1 expressed on cells (human, UniProt Q15116 25-288); test: cell-based or functional assay
[2] = target: T1, human PD-1 expressed on cells; test: FACS blocking of PD-L1-Ig binding to PD-1-expressing 300.19 cells
[3] = target: T2, cynomolgus PD-1 expressed on cells (cynomolgus); test: FACS on cynomolgus T cells (e.g., CD3/CD28 activated CD4 T cells)
T2 construct: whole, on cells; also called cells transfected with cynomolgus PD-1

[4] = target: T1, human PD-1 expressed on cells; test: competition binding assay; blocks PD-L1 binding to human PD-1-expressing 300.19 cells
[5] = target: T2, cynomolgus PD-1 expressed on cells; test: FACS on cells transfected with cynomolgus PD-1
[6] = target: T3, human PD-1-Ig fusion protein (human, UniProt Q15116 25-167); test: ELISA on human PD-1-Ig fusion protein
T3 construct: not shown: Ig part of the fusion protein
T3 sequence (Q15116 25-167): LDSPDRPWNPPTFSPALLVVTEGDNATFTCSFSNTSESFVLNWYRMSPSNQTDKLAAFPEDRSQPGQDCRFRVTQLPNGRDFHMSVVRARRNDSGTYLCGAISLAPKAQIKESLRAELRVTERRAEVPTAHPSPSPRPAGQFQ

[7] = target: T1, human PD-1 expressed on cells; test: FACS on human PD-1 transfected Jurkat cells
[8] = target: T1, human PD-1 expressed on cells; test: competition binding assay; blocks PD-L2 binding to human PD-1-expressing 300.19 cells

T1 sequence (Q15116 25-288): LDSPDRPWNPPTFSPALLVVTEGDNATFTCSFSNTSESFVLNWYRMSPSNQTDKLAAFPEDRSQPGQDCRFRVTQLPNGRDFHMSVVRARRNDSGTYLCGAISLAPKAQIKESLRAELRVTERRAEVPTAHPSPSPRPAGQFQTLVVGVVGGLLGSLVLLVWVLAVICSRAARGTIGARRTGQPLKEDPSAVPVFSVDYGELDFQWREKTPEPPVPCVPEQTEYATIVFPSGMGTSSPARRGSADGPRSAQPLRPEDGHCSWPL

B1: humanized anti-PD-1 antibody BAP049-Clone-E (antibody, human IgG4 S228P, kappa)
heavy: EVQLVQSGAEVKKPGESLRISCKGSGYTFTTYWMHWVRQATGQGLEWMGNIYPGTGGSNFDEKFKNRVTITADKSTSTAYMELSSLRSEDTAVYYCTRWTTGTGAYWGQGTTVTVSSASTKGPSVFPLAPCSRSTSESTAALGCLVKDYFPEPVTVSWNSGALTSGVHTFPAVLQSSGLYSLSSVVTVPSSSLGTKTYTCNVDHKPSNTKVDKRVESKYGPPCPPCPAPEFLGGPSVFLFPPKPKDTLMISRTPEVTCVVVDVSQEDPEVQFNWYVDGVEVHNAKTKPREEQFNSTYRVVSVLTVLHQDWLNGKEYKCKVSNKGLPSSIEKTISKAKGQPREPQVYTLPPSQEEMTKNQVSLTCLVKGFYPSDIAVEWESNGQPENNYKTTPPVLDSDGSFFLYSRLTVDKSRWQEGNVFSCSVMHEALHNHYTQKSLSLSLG
light: EIVLTQSPATLSLSPGERATLSCKSSQSLLDSGNQKNFLTWYQQKPGQAPRLLIYWASTRESGVPSRFSGSGSGTDFTFTISSLEAEDAATYYCQNDYSYPYTFGQGTKVEIKRTVAAPSVFIFPPSDEQLKSGTASVVCLLNNFYPREAKVQWKVDNALQSGNSQESVTEQDSKDSTYSLSSTLTLSKADYEKHKVYACEVTHQGLSSPVTKSFNRGEC
B1 was tested, and the “ex vivo EC50 for PD-1 blockade” value [1] was 0.42 µg/mL.

B2: humanized anti-PD-1 antibody BAP049-hum09 (antibody, human IgG4 S228P, kappa)
heavy: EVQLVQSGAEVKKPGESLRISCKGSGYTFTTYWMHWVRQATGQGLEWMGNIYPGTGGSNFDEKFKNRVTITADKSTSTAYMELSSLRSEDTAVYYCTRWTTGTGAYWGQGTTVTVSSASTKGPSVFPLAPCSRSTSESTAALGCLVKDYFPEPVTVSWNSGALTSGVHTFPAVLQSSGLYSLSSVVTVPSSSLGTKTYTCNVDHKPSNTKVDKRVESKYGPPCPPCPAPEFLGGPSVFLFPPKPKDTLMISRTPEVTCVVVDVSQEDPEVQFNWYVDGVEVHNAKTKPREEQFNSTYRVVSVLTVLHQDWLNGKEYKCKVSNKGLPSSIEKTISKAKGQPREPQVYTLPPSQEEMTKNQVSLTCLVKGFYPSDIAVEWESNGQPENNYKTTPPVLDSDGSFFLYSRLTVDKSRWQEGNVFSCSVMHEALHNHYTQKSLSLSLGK
light: EIVLTQSPDFQSVTPKEKVTITCKSSQSLLDSGNQKNFLTWYQQKPGQAPRLLIYWASTRESGVPSRFSGSGSGTDFTFTISSLEAEDAATYYCQNDYSYPYTFGQGTKVEIKRTVAAPSVFIFPPSDEQLKSGTASVVCLLNNFYPREAKVQWKVDNALQSGNSQESVTEQDSKDSTYSLSSTLTLSKADYEKHKVYACEVTHQGLSSPVTKSFNRGEC
notes: Whole IgG4(S228P)/kappa; tested as concentrated supernatant of transiently transfected CHO cells; also called Clone No. 09
B2 was tested, and the “IC50 (read off the curve)” value [2] was roughly 1 µg/mL.

B3: murine anti-PD-1 monoclonal antibody BAP049 (antibody, V domains shown)
VH: QVQLQQSGSELVRPGASVKLSCKASGYTFTTYWMHWVRQRPGQGLEWIGNIYPGTGGSNFDEKFKNRTSLTVDTSSTTAYMHLASLTSEDSAVYYCTRWTTGTGAYWGQGTLVTVSA
VL: DIVMTQSPSSLTVTAGEKVTMSCKSSQSLLDSGNQKNFLTWYQQKPGQPPKLLIFWASTRESGVPDRFTGSGSVTDFTLTISSVQAEDLAVYYCQNDYSYPCTFGGGTKLEIK
notes: the murine constant regions are not; also called Mu mAb; murine mAb BAP049
In the case of B3, the Kd [3] is reported as 0.4 nM, the IC50 [4] is reported as 0.3 nM and the Kd [5] is reported as 0.6 nM. For the same binder, the Kd [6] was 0.04 nM, the Kd [7] was 0.06 nM and the IC50 [8] was 0.9 nM.
